Several values for one entry are separate records, joined by “and”; a condition that tells them apart may be missing. Identical values can stand only once. Like-named read-outs stand apart in the source and are kept apart here.
B1: MIRO1_(177-591) (domain or fragment)
chain: EEKEMKPACIKALTRIFKISDQDNDGTLNDAELNFFQRICFNTPLAPQALEDVKNVVRKHISDGVADSGLTLKGFLFLHTLFIQRGRHETTWTVLRRFGYDDDLDLTPEYLFPLLKIPPDCTTELNHHAYLFLQSTFDKHDLDRDCALSPDELKDLFKVFPYIPWGPDVNNTVCTNERGWITYQGFLSQWTLTTYLDVQRCLEYLGYLGYSILTEQESQASAVTVTRDKKIDLQKKQTQRNVFRCNVIGVKNCGKSGVLQALLGRNLMRQKKIREDHKSYYAINTVYVYGQEKYLLLHDISESEFLTEAEIICDVVCLVYDVSNPKSFEYCARIFKQHFMDSRIPCLIVAAKSDLHEVKQEYSISPTDFCRKHKMPPPQAFTCNTADAPSKDIFVKLTTMAMYPHVTQADLKSST
B2: MBP-TRAK1_(342-431) (domain or fragment)
chain: EAQEELKNLRNKTMPNTTSRRYHSLGLFPMDSLAAEIEGTMRKELQLEEAESPDITHQKRVFETVRNINQVVKQRSLTPSPMNIPGSNQS

Columns and labels:
[1] = molecular target: T1, MBP-TRAK1_(342-431) ^400KR^401 to AA (human, UniProt Q9UPV9 342-431, ^400KR^401 to AA); experiment: ITC; 5 mM EGTA, 1 mM MgCl2, 0.1 uM GTP; experiment 1
T1 sequence: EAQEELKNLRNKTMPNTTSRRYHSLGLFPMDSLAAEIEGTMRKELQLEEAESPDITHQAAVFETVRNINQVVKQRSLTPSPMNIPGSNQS

[2] = molecular target: T1, MBP-TRAK1_(342-431) ^400KR^401 to AA; experiment: ITC; 5 mM EGTA; MIRO1 in syringe
[3] = molecular target: T1, MBP-TRAK1_(342-431) ^400KR^401 to AA; experiment: ITC; 5 mM EGTA, 1 mM MgCl2, 0.1 uM GTP; experiment 3
[4] = molecular target: T1, MBP-TRAK1_(342-431) ^400KR^401 to AA; experiment: ITC; 5 mM EGTA, 1 mM MgCl2, 0.1 uM GTP; reverse titration, experiment 1
[5] = molecular target: T1, MBP-TRAK1_(342-431) ^400KR^401 to AA; experiment: ITC; 5 mM EGTA, 1 mM MgCl2, 0.1 uM GTP; reverse titration, experiment 3
[6] = molecular target: B2; experiment: ITC
[7] = molecular target: T2, GCN4-TRAK1_(342-431) ( | human, UniProt Q9UPV9 342-431); experiment: ITC
T2 chain: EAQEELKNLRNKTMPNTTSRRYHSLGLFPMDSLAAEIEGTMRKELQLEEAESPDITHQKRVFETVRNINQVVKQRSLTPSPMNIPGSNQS

[8] = molecular target: T1, MBP-TRAK1_(342-431) ^400KR^401 to AA; experiment: ITC; 5 mM EGTA, 1 mM MgCl2, 0.1 uM GTP; experiment 2
[9] = molecular target: T1, MBP-TRAK1_(342-431) ^400KR^401 to AA; experiment: ITC; 5 mM EGTA; TRAK1 in syringe
[10] = molecular target: T1, MBP-TRAK1_(342-431) ^400KR^401 to AA; experiment: ITC; 5 mM EGTA, 1 mM MgCl2, 0.1 uM GTP; reverse titration, experiment 2
[11] = molecular target: T3, MIRO1_(177-591) E328A (human, UniProt Q8IXI2 177-591, E328A); experiment: ITC; 5 mM EGTA
[12] = molecular target: T4, MIRO1_(177-591) E208A (human, UniProt Q8IXI2 177-591, E208A); experiment: ITC; 5 mM EGTA
[13] = molecular target: T3, MIRO1_(177-591) E328A; experiment: ITC; 5 mM EGTA, 1 mM MgCl2, 0.1 uM GTP; experiment 1
[14] = molecular target: T4, MIRO1_(177-591) E208A; experiment: as above
[15] = molecular target: B1; experiment: ITC
[16] = molecular target: T3, MIRO1_(177-591) E328A; experiment: ITC; 5 mM EGTA, 1 mM MgCl2, 0.1 uM GTP; experiment 3
[17] = molecular target: T4, MIRO1_(177-591) E208A; experiment: as above
[18] = molecular target: T3, MIRO1_(177-591) E328A; experiment: ITC; 5 mM EGTA, 1 mM MgCl2, 0.1 uM GTP; experiment 2
[19] = molecular target: T4, MIRO1_(177-591) E208A; experiment: as above
[20] = molecular target: B1; experiment: ITC; remark: listed apart in the source
[21] = molecular target: B1; experiment: ITC; remark: listed apart in the source

Binder: B1
- Kd [1]: 4.39 µM
- Kd [2]: 7.52 µM
- Kd [3]: 3.98 µM
- Kd [4]: 7.52 µM
- Kd [5]: 8.55 µM
- Kd [6]: 5.95 µM and 6.02 µM and 8 µM and 5.38 µM
- Kd [7]: 3.52 µM and 9.35 µM
- Kd [8]: 2.98 µM
- Kd [9]: 9.62 µM
- Kd [10]: 11.3 µM

Binder: B2
- Kd [11]: 10.1 µM
- Kd [12]: 9.09 µM
- Kd [13]: 9.17 µM
- Kd [14]: 8.85 µM
- Kd [15]: 10.6 µM
- Kd [16]: 10.3 µM
- Kd [17]: 3.86 µM
- Kd [18]: 10.1 µM
- Kd [19]: 9.09 µM

Binder: PDITHQKRVFETVRNINQVVKQRSLTPSPMNIPGSNQSSAM [TRAK1_(394-434)]
- Kd [20]: 4.39 µM
- Kd [21]: 9.62 µM and 6.1 µM and 5.65 µM

From paper PMC10746525 (2023)
